This series deals with the molecule itself. The series is described as follows: cross-linking.

B1: full-length Mycobacterium tuberculosis MmpL3 (natural protein)
chain: MFAWWGRTVYRYRFIVIGVMVALCLGGGVFGLSLGKHVTQSGFYDDGSQSVQASVLGDQVYGRDRSGHIVAIFQAPAGKTVDDPAWSKKVVDELNRFQQDHPDQVLGWAGYLRASQATGMATADKKYTFVSIPLKGDDDDTILNNYKAIAPDLQRLDGGTVKLAGLQPVAEALTGTIATDQRRMEVLALPLVAVVLFFVFGGVIAAGLPVMVGGLCIAGALGIMRFLAIFGPVHYFAQPVVSLIGLGIAIDYGLFIVSRFREEIAEGYDTETAVRRTVITAGRTVTFSAVLIVASAIGLLLFPQGFLKSLTYATIASVMLSAILSITVLPACLGILGKHVDALGVRTLFRVPFLANWKISAAYLNWLADRLQRTKTREEVEAGFWGKLVNRVMKRPVLFAAPIVIIMILLIIPVGKLSLGGISEKYLPPTNSVRQAQEEFDKLFPGYRTNPLTLVIQTSNHQPVTDAQIADIRSKAMAIGGFIEPDNDPANMWQERAYAVGASKDPSVRVLQNGLINPADASKKLTELRAITPPKGITVLVGGTPALELDSIHGLFAKMPLMVVILLTTTIVLMFLAFGSVVLPIKATLMSALTLGSTMGILTWIFVDGHFSKWLNFTPTPLTAPVIGLIIALVFGLSTDYEVFLVSRMVEARERGMSTQEAIRIGTAATGRIITAAALIVAVVAGAFVFSDLVMMKYLAFGLMAALLLDATVVRMFLVPSVMKLLGDDCWWAPRWARRLQTRIGLGEIHLPDERKRPVSNGRPARPPVTAGLVAARAAGDPRPPHDPTHPLAESPRPARSSPASSPELTPALEATAAPAAPSGASTTRMQIGSSTEPPTTRLAAAGRSVQSPASTPPPTPTPPSAPSAGQTRAMPLAANRSTDAAGDPAEPTAALPIIRSDGDDSEAATEQLNARGTSDKTRQRRRGGGALSAQDLLRREGRL
Take B1: the binding result is “binds”.

Source of the values: PMC9335285 (Proceedings of the National Academy of Sciences of the …, 2022).
